Source: PMC4317691, “Stability of glucagon-like peptide 1 and glucagon in human plasma” (Endocrine Connections, 2015)

Columns and labels:
[1] = Stability of glucagon in frozen assay buffer with 6% HSA; type: physicochemical; conditions: 40 pmol/l, -20 °C for up to 72 h
[2] = Protocol: The aliquots (N=6–8) of spiked plasma were then: i) immediately extracted with ethanol (final concentration 70%, for this treatment we used N=21); ii) subjected to one freeze–thaw cycle (placed at −20 °C for ∼1 h followed by thawing in an ice bath) and extracted (using 70% ethanol, final concentration) immediately upon thawing; iii) subjected to two freeze–thaw cycles and extracted immediately upon second thawing; iv) subjected to three freeze–thaw cycles and extracted immediately upon third thawing; v) kept on ice for 1 h and extracted immediately after; vi) kept on ice for 3 h and extracted immediately after; vii) kept without ice for 1 h at RT and extracted immediately after; viii) kept without ice for 3 h and extracted immediately after.
Later, an additional plasma pool was prepared of fresh plasma from some (n=5) of the healthy subjects contributing to the first pool, spiked with glucagon (0 and 40 pmol/l, final concentration), and aliquoted. Thereafter, the valiquots were kept on ice for up to 24 h. These aliquots (N=6–8 for each time point) were extracted after 1, 3, 6, 12, and 24 h, respectively, measured (see below) and compared with a set of aliquots extracted immediately after spiking with peptide. […] After extraction, peptide concentrations were analyzed using the assays described below. […]

[3] = remark: listed apart in the source
Protocol: From each of the original spiked plasma portions, eight to ten aliquots were distributed into low-adsorption Nunc tubes (VWR-Bie&Berntsen A/S, Herlev, Denmark). One set of samples (N=8–10) was extracted and analyzed immediately to serve as controls. The remaining eight sets were divided into two and stored at −20 °C or −80 °C. Samples (N=8–10) from each set were analyzed after 1, 3, 6, and 12 months of storage. In addition, seven portions of the new plasma pool as well as assay buffer (to which was added 6% human serum albumin (HSA) to mimick plasma), spiked with 0 and 40 pmol/l of glucagon (N=5 for each set of spiked samples), were assayed (plasma after extraction) after freezing (at −20 °C) for 0 (i.e., they were measured immediately without freezing), 1, 3, 6, 12, 24, and 72 h of storage at −20 °C.
The recovery in percent was calculated as the measured concentration in the individual, spiked plasma sample minus the concentration in the corresponding non-spiked plasma sample divided by the theoretical spiked concentration of peptide and multiplied by 100. For the presentation of data, we normalized the recovery after each treatment by adjusting for the recovery of the samples extracted immediately, set as 100% (Table 1). Differences between treatments were analyzed by one-way ANOVA for repeated measurement with post hoc Bonferroni correction. […]

[4] = human plasma, no ice
Protocol: GLP-1 and glucagon (0 and 40 pmol/l) were added to the portions, whereafter they were stored at either room temperature or on ice for 1 h and measured (as described below plasma samples after extraction and buffer samples directly).

Molecule	Recovery of glucagon in buffer after freezing [1]	Glucagon recovery at RT for 3 h, N-terminal-specific assay [2]	Glucagon stability at RT for 1 h [2]	Loss of glucagon recovery after 1 month of frozen storage [3]	Recovery of intact GLP-1 on addition of a DPP4 inhibitor [4]
glucagon 1–29	unaffected	significant (P=0.02) reduction	relatively stable	about 50%	
CC[C@H](C)[C@H](NC(=O)[C@H](Cc1ccccc1)NC(=O)[C@H](CCC(=O)O)NC(=O)[C@H](CCCCN)NC(=O)[C@H](C)NC(=O)[C@H](C)NC(=O)[C@H](CCC(N)=O)NC(=O)CNC(=O)[C@H](CCC(=O)O)NC(=O)[C@H](CC(C)C)NC(=O)[C@H](Cc1ccc(O)cc1)NC(=O)[C@H](CO)NC(=O)[C@H](CO)NC(=O)[C@@H](NC(=O)[C@H](CC(=O)O)NC(=O)[C@H](CO)NC(=O)[C@@H](NC(=O)[C@H](Cc1ccccc1)NC(=O)[C@@H](NC(=O)CNC(=O)[C@H](CCC(=O)O)NC(=O)[C@H](C)NC(=O)[C@@H](N)Cc1c[nH]cn1)[C@@H](C)O)[C@@H](C)O)C(C)C)C(=O)N[C@@H](C)C(=O)N[C@@H](Cc1c[nH]c2ccccc12)C(=O)N[C@@H](CC(C)C)C(=O)N[C@H](C(=O)N[C@@H](CCCCN)C(=O)NCC(=O)N[C@@H](CCCNC(=N)N)C(N)=O)C(C)C [GLP-1 7–36NH2]					increased
